Laboratory results as given in paper PMC3594540 (Nature structural & molecular biology, 2013).
Positions count from the first letter of the chain named.

Key:
Test in all cases: cell-based or functional assay
[1] = target: T1, PLCβ3 I1129E V1133E I1136E triple mutant (human, UniProt Q01970)
T1 chain: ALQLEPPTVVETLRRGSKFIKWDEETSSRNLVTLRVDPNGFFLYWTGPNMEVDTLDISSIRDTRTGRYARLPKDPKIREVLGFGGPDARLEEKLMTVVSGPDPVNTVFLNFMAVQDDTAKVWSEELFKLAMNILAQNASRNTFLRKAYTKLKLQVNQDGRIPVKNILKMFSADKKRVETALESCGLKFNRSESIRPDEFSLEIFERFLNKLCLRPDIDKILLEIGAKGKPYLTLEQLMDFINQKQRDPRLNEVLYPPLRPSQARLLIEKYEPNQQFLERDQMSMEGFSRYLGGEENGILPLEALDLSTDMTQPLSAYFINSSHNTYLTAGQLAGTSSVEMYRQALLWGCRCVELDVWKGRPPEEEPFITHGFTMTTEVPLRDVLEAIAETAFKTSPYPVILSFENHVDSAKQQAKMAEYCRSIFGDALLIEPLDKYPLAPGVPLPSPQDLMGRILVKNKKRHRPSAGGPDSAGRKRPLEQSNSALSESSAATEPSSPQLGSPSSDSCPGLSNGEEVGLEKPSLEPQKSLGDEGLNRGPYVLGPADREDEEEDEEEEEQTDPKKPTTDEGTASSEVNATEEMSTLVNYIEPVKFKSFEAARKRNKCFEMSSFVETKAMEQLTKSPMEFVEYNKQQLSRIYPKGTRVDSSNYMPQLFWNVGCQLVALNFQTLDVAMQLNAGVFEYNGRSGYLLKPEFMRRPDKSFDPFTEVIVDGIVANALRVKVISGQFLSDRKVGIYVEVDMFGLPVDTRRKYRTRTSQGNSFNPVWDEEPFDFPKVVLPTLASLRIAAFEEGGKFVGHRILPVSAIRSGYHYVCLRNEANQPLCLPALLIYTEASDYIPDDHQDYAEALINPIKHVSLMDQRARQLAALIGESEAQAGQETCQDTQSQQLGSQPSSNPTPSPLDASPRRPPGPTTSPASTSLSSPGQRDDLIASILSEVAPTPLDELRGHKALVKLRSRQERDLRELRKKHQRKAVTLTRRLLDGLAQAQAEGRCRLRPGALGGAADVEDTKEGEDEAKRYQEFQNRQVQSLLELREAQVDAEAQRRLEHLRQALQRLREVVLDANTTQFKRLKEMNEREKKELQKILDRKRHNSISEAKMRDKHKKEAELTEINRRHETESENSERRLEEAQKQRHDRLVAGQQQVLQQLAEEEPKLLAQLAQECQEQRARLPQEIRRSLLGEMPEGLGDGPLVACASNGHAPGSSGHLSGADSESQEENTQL

[2] = target: T2, human PLCβ3 (residues 10–1234) (human, UniProt Q01970 10-1234)
T2 sequence: T1 chain with E1120I, E1124V, E1127I

PLCβ3 L876A = PLCβ3 L876A (human, UniProt Q01970 10-1234, L876A)

B1: murine Gαq (residues 7–359), biotinylated for bead binding (natural protein)
chain: MACCLSEEAKEARRINDEIERQLRRDKRDARRELKLLLLGTGESGKSTFIKQMRIIHGSGYSDEDKRGFTKLVYQNIFTAMQAMIRAMDTLKIPYKYEHNKAHAQLVREVDVEKVSAFENPYVDAIKSLWNDPGIQECYDRRREYQLSDSTKYYLNDLDRVADPSYLPTQQDVLRVRVPTTGIIEYPFDLQSVIFRMVDVGGQRSERRKWIHCFENVTSIMFLVALSEYDQVLVESDNENRMEESKALFRTIITYPWFQNSSVILFLNKKDLLEEKIMYSHLVDYFPEYDGPQRDAQAAREFILKMFVDLNPDSDKIIYSHFTCATDTENIRFVFAAVKDTILQLNLKEYNLV
[1]
  EC50 of Gαq-stimulated PIP2 hydrolysis ([3H]-IP3 release from liposomes): 280 nM
  Max specific activity of Gαq-stimulated PIP2 hydrolysis (liposomes): 1900 nmol IP3/min/nmol PLCβ3
[2]
  EC50 of Gαq-stimulated PIP2 hydrolysis ([3H]-IP3 release from liposomes): 120 nM
  Max specific activity of Gαq-stimulated PIP2 hydrolysis (liposomes): 2900 nmol IP3/min/nmol PLCβ3
PLCβ3 L876A
  EC50 of Gαq-stimulated PIP2 hydrolysis ([3H]-IP3 release from liposomes): 19 nM
  Max specific activity of Gαq-stimulated PIP2 hydrolysis (liposomes): 6500 nmol IP3/min/nmol PLCβ3
